From patent publication US20230151105A1 (HUTCHISON MEDIPHARMA, published 2023)

T1: recombinant human OX40-His protein (R & D Systems, Cat 9969-OX) (human, UniProt P43489 29-214)
T1 construct: extracellular domain; Bought protein; also called human OX40 protein; human OX40-His fusion protein; not shown: His tag
T1 sequence (looked up): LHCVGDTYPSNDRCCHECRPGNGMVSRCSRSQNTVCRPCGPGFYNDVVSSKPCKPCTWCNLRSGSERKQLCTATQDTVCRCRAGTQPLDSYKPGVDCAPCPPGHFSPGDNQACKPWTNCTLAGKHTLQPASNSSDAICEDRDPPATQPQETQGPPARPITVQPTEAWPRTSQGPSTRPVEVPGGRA

T2: human OX40 expressed on the cell surface (human, UniProt P43489 29-277)
T2 construct: whole, on cells
T2 sequence (looked up): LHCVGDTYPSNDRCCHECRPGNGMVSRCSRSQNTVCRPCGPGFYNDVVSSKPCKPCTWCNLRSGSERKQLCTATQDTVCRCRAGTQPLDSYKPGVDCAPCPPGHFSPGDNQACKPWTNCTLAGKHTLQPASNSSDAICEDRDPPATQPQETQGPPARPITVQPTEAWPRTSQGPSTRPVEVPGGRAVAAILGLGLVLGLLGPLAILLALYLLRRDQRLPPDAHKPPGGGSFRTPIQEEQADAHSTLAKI

T3: recombinant OX40-Fc protein (R & D, Cat 3388-OX) (human, UniProt P43489 29-214)
T3 construct: extracellular domain; also called OX40 (R & D systems, Cat 3388-OX); not shown: Fc tag
T3 sequence (looked up): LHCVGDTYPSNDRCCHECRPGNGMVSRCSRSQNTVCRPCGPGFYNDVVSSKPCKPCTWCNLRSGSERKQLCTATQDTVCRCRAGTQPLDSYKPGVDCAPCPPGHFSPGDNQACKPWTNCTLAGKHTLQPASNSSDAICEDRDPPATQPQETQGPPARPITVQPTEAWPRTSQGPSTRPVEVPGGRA


Key:
[1] = biological target: T1, recombinant human OX40-His protein (R & …); test: ELISA, human OX40-His coated, anti-mouse IgG-HRP detection
Method: The recombinant human OX40-His (R & D, Cat 9969-OX) was coated onto 96-well plates. After blocking, serially diluted mouse serum or antibodies were added and incubated. After washing plates with PBS containing 0.5% Tween20, HRP-labeled anti-mouse IgG secondary antibody was added for incubation, and the plates were developed with […], and the OD450 value was read via a microplate reader.

[2] = biological target: T2, human OX40 expressed on the cell surface; test: FACS on activated human CD4+ T cells
From the text: (§1) Primary human PBMC were isolated from whole blood obtained from healthy donors through density gradient centrifugation with Ficoll-Paque PLUS (GE Healthcare, Cat 17-1440-02). After centrifuge, the cells in the middle layer were collected and washed 3 times with PBS to obtain PBMC. Then, human T cells were isolated with Pan T Cell Isolation Kit (Miltenyi biotec, Cat 130-096-535) by magnetic beads isolation method according to the protocol recommended by the instructions. T cells were resuspended in RPMI 1640 (containing 10% FBS and penicillin/streptomycin bi-antibiotics) medium, and PHA-L and IL-2 (or Con-A and hIL-2) were added for 2-day stimulation to induce the expression of OX40 from the T cells. The activated T cells were washed once with PBS containing 2% FBS, the serially diluted OX40 antibodies were added, and incubated at 4° C. for 30 minutes. The cells were washed twice with PBS containing 2% FBS, PE-labeled anti-human IgG secondary antibody (Biolegend, Cat 409304) (or PE-labeled anti-mouse IgG secondary antibody (Biolegend, Cat 405307)) and APC-CY7 labeled antibody human CD4 antibody (Biolegend, Cat 300518) were added. The binding of OX40 antibody on the surface of CD4 positive T cells was detected by BD Cantoll flow cytometry. A curve was fitted according to the median fluorescence intensity value, and EC₅₀ was calculated.

[3] = biological target: T2, human OX40 expressed on the cell surface; test: cell-based or functional assay
[4] = biological target: T1, recombinant human OX40-His protein (R & …); test: SPR (Biacore), antibody captured on anti-human Fc CM5 chip, human OX40-His as analyte, 1:1 Langmuir
From the text: Biacore is used to determine the binding kinetic parameters by measuring surface plasmon resonance (SPR). This technology was used to detect the microscopic rate constants of the binding (kₐ) and dissociation (kd) of an antibody and an antigen. Based on the kₐ and the kd values, the affinity value of the antibody to the antigen is obtained. Both Biacore instrument and reagents were purchased from GE Healthcare. In particular, anti-human Fc antibody was immobilized on a CM5 sensor chip. The supernatants containing expressed antibody or the purified antibodies were diluted in a mobile phase buffer (10 mM HEPES, 150 mM NaCl, 3 mM EDTA, 0.05% Tween-20, pH 7.4), and flowed through the CM5 chip coated with anti-human Fc antibody. Then the serially diluted human OX40-His fusion proteins flowed through the detection chip to measure the binding of the antigen to the antibody, and then the mobile phase buffer flowed through the chip to detect the dissociation of the antigen from the antibody. The binding and dissociation signal data of the antigen and the antibody were collected at different concentrations, and fitted to the 1:1 Langmuir model to calculate the affinity between the antigen and the antibody.

[5] = biological target: T2, human OX40 expressed on the cell surface; test: cell-based or functional assay; remark: listed apart in the source
[6] = biological target: T2, human OX40 expressed on the cell surface; test: cell-based or functional assay; remark: listed apart in the source
[7] = biological target: T2, human OX40 expressed on the cell surface; test: FACS on activated human T cells
From the text: as §1
According to the detection method described in the preceding Example 1.2, FACS was used to analyze the binding activities of humanized antibodies to OX40 on activated human T cells.

[8] = biological target: T3, recombinant OX40-Fc protein (R & D, Cat …); test: blocking ELISA: OX40-Fc coated, antibody titrated, competitor OX40L at 50 ng/ml
Method: The plate was washed 3 times with PBS containing 0.5% Tween-20 to remove unbound proteins, then the plates were blocked by adding PBS containing 1% BSA at 200 μl/well, at room temperature for 1 h. After washing the plate 3 times with PBS containing 0.5% Tween-20, the serially diluted anti-OX40 antibodies were added to the 96-well plate at 100 μl/well, and incubated for 1 h at room temperature. The plate was washed 3 times with PBS containing 0.5% Tween-20. […] The plate was washed. 200 μl TMB color developing solution was added to each well for color development, and the reaction was stopped with 2N H2504. On a microplate reader, the O.D. value was detected at 450 nm, and the background O.D. value was measured at 570 nm.

EC50 [2] [nM] | Enhancement of IFNγ production by activated human T cells (ELISA), EC50 [3] [nM] | Ratio of IFNγ maximum effect to background (in fold) [3] [fold] | Agonistic activity on T cells, IFNγ release, EC50 [6] [nM] | maximum IFNγ concentration [6] [ng/mL] | EC50 [7] [nM] | Binder | other results
0.8 | 1.4 | 7.6 |  |  |  | hybridoma-derived antibody 38E11 (antibody, V domains shown, Murine antibody purified from hybridoma supernatant by protein A) VH: QVQLQQPGAELVRPGSSVQLSCKASGYTFTSYWVDWVKQRPGQGLQWIGNIYPSDSETHYNQKFKDKATLTVDKSSSTAYMQLSSLTSEDSAVYYCARSYGYYGTWFAYWGQGTLVTVSA VL: DIVLTQSPASLAVSLGQRATISCRASESVDSSGNSFMHWYQQKPGQPPKLLIYRASNLESGIPARFSGSGSRTDFTLTINPVEADDVATYYCQQSNEDPWTFGGGTKLEIK | EC50 [1]: 0.276 nM
0.4 | 8 | 5.6 |  |  |  | 11D4 (antibody, V domains shown) VH: EVQLVESGGGLVQPGGSLRLSCAASGFTFSSYSMNWVRQAPGKGLEWVSYISSSSSTIDYADSVKGRFTISRDNAKNSLYLQMNSLRDEDTAVYYCARESGWYLFDYWGQGTLVTVSS VL: DIQMTQSPSSLSASVGDRVTITCRASQGISSWLAWYQQKPEKAPKSLIYAASSLQSGVPSRFSGSGSGTDFTLTISSLQPEDFATYYCQQYNSYPPTFGGGTKVEIKR | Kd [4]: 2.51 nM; koff [4]: 0.000435 s⁻¹; kon [4]: 173000 M⁻¹ s⁻¹; T-cell agonistic activity, IFNγ released by T cells, EC50 [5]: 5.3 nM
 |  |  | 0.7 | 21600 | 5.03 | Hu38E11-v1 (antibody, human IgG1, V domains shown, also called Hu38E11-vl) VH: QVQLVQSGAEVKKPGASVKVSCKASGYTFTSYWVDWVRQAPGQGLEWIGNIYPSDSETHYNQKFKDRVTMTVDTSTSTVYMELSSLRSEDTAVYYCARSYGYYGTWFAYWGQGTLVTVSS VL: DIVMTQSPDSLAVSLGERATINCRASESVDSSGNSFMHWYQQKPGQPPKLLIYRASNLESGIPDRFSGSGSGTDFTLTISSVQAEDVAVYYCQQSNEDPWTFGGGTKLEIK | 
 |  |  |  |  |  | Hu38E11 (IgG1 N297A) (antibody, name in EU numbering, Hu38E11 variable regions with a human IgG1 constant region carrying N297A; also called Hu38E11 (hIgG1 N297A)) heavy: not shown VL: DIVMTQSPDSLAVSLGERATINCRASESVDSSGNSFMHWYQQKPGQPPKLLIYRASNLESGVPDRFSGSGSGTDFTLTISSLQAEDVAVYYCQQSNEDPWTFGGGTKLEIK | IC50 [8]: ~0.3 nM; blocking of OX40L-mediated T cell activation, IFNγ secretion, IC50 [5]: 0.3 nM; inhibition of the expression of luciferase reporter gene under the control of NF-κB, IC50 [5]: 0.2 nM
 |  |  |  |  |  | Hu38E11 (IgG2) (antibody) heavy: QVQLVQSGAEVKKPGASVKVSCKASGYTFTSYWVDWVRQAPGQGLEWMGNIYPSDSETHYNQKFKDRVTMTRDTSTSTVYMELSSLRSEDTAVYYCARSYGYYGTWFAYWGQGTLVTVSSASTKGPSVFPLAPCSRSTSESTAALGCLVKDYFPEPVTVSWNSGALTSGVHTFPAVLQSSGLYSLSSVVTVPSSNFGTQTYTCNVDHKPSNTKVDKTVERKCCVECPPCPAPPVAGPSVFLFPPKPKDTLMISRTPEVTCVVVDVSHEDPEVQFNWYVDGVEVHNAKTKPREEQFNSTFRVVSVLTVVHQDWLNGKEYKCKVSNKGLPAPIEKTISKTKGQPREPQVYTLPPSREEMTKNQVSLTCLVKGFYPSDIAVEWESNGQPENNYKTTPPMLDSDGSFFLYSKLTVDKSRWQQGNVFSCSVMHEALHNHYTQKSLSLSPGK VL: DIVMTQSPDSLAVSLGERATINCRASESVDSSGNSFMHWYQQKPGQPPKLLIYRASNLESGVPDRFSGSGSGTDFTLTISSLQAEDVAVYYCQQSNEDPWTFGGGTKLEIK | T-cell agonistic activity, IFNγ released by T cells, EC50 [5]: 1.6 nM
 |  |  | 1.7 | 22500 | 3.48 | Hu38E11-v3 (antibody, human IgG1, V domains shown) VH: QVQLVQSGAEVKKPGASVKVSCKASGYTFTSYWVDWVRQAPGQGLEWMGNIYPSDSETHYNQKFKDRVTMTRDTSTSTVYMELSSLRSEDTAVYYCARSYGYYGTWFAYWGQGTLVTVSS VL: DIVMTQSPDSLAVSLGERATINCRASESVDSSGNSFMHWYQQKPGQPPKLLIYRASNLESGIPDRFSGSGSGTDFTLTISSVQAEDVAVYYCQQSNEDPWTFGGGTKLEIK | 
 |  |  | 1 | 22500 | 3.35 | Hu38E11-v2 (antibody, human IgG1, V domains shown) VH: QVQLVQSGAEVKKPGASVKVSCKASGYTFTSYWVDWVRQAPGQGLEWIGNIYPSDSETHYNQKFKDRVTMTVDTSTSTAYMELSSLRSEDSAVYYCARSYGYYGTWFAYWGQGTLVTVSS VL: DIVMTQSPDSLAVSLGERATINCRASESVDSSGNSFMHWYQQKPGQPPKLLIYRASNLESGVPDRFSGSGSGTDFTLTISSLQAEDVAVYYCQQSNEDPWTFGGGTKLEIK | 
 |  |  | 0.9 | 21700 | 3.02 | Hu38E11-v4 (antibody, human IgG1, V domains shown) VH: QVQLVQSGAEVKKPGASVKVSCKASGYTFTSYWVDWVRQAPGQGLEWIGNIYPSDSETHYNQKFKDRVTMTVDTSTSTAYMELSSLRSEDSAVYYCARSYGYYGTWFAYWGQGTLVTVSS VL: DIVMTQSPDSLAVSLGERATINCRASESVDSSGNSFMHWYQQKPGQPPKLLIYRASNLESGIPDRFSGSGSGTDFTLTISSLQAEDVAVYYCQQSNEDPWTFGGGTKLEIK | 
 |  |  | 2.4 | 24800 | 4.56 | humanized 38E11 antibody Hu38E11 (IgG1) (antibody) heavy: not shown VL: DIVMTQSPDSLAVSLGERATINCRASESVDSSGNSFMHWYQQKPGQPPKLLIYRASNLESGVPDRFSGSGSGTDFTLTISSLQAEDVAVYYCQQSNEDPWTFGGGTKLEIK | Kd [4]: 2.36 nM; koff [4]: 0.000394 s⁻¹; kon [4]: 167000 M⁻¹ s⁻¹; expression of the luciferase reporter gene under the control of NF-κB, EC50 [5]: 0.7 nM
1.3 | 14.7 | 9.4 | 7.1 | 27400 | 6.23 | OX40mAb24 (antibody, V domains shown) VH: QVQLQESGPGLVKPSQTLSLTCAVYGGSFSSGYWNWIRKHPGKGLEYIGYISYNGITYHNPSLKSRITINRDTSKNQYSLQLNSVTPEDTAVYYCARYKYDYDGGHAMDYWGQGTLVTVSS VL: DIQMTQSPSSLSASVGDRVTITCRASQDISNYLNWYQQKPGKAPKLLIYYTSKLHSGVPSRFSGSGSGTDYTLTISSLQPEDFATYYCQQGSALPWTFGQGTKVEIKR | 
